{"source": "paper PMC6329974", "about": "(Proceedings of the National Academy of Sciences of the …, 2018)", "binders": {"B1": {"name": "proteasome-activating nucleotidase (PAN) from Archaeoglobus fulgidus (enzyme, UniProt O28303 1-398, looked up)", "chain": "MGDSEIQYLLEKLKKLEEDYYKLRELYRRLEDEKKFIESERIRYEREVRRLRSEVERLRSPPLLVGVVSDILEDGRVVVKSSTGPKFVVNTSQYINEEELKPGARVALNQQTLAIVNVLPTSKDPMVYGFEVEEKPEVSYEDIGGLDVQIEEIREAVELPLLKPELFAEVGIEPPKGVLLYGPPGTGKTLLAKAVANQTRATFIRVVGSEFVQKYIGEGARLVREVFQLAKEKAPSIIFIDELDAIAARRTNSDTSGDREVQRTMMQLLAELDGFDPRGDVKVIGATNRIDILDPAILRPGRFDRIIEVPLPTFEGRIQIFKIHTRKMKLAEDVDFKELARITEGASGADIKAICTEAGMFAIREERAKVTMLDFTKAIEKVLKKTTPIPDLKGVMFV"}, "B2": {"name": "CP α-subunit from Archaeoglobus fulgidus (natural protein, UniProt O29760 1-246, looked up)", "chain": "MHLPQMGYDRAITVFSPDGRLFQVEYAREAVKRGATAIGIKCKEGVILIADKRVGSKLLEADTIEKIYKIDEHICAATSGLVADARVLIDRARIEAQINRLTYDEPITVKELAKKICDFKQQYTQYGGVRPFGVSLLIAGVDEVPKLYETDPSGALLEYKATAIGMGRNAVTEFFEKEYRDDLSFDDAMVLGLVAMGLSIESELVPENIEVGYVKVDDRTFKEVSPEELKPYVERANERIRELLKK"}, "B3": {"name": "CP β-subunit from Archaeoglobus fulgidus (natural protein, UniProt Q9P996 12-213, looked up)", "chain": "TTTVGLVCKDGVVMATEKRATMGNFIASKAAKKIYQIADRMAMTTAGSVGDAQFLARIIKIEANLYEIRRERKPTVRAIATLTSNLLNSYRYFPYLVQLLIGGIDSEGKSIYSIDPIGGAIEEKDIVATGSGSLTAYGVLEDRFTPEIGVDEAVELAVRAIYSAMKRDSASGDGIDVVKITEDEFYQYSPEEVEQILAKFRK"}}, "test_in_all_cases": "cryo-EM structure", "key": {"cryo-EM structure [1]": {"molecular_target": "the molecule itself"}, "[2]": {"molecular_target": "B1"}, "cryo-EM structure [3]": {"molecular_target": "the molecule itself", "remark": "listed apart in the source"}, "[4]": {"molecular_target": "B2"}}}
{"binder": "B1", "values": [{"measurement": "stoichiometry N", "setting": "cryo-EM structure [1]", "value": 6}]}
{"binder": "B2", "values": [{"measurement": "binding result", "setting": "[2]", "value": "binds"}]}
{"binder": "B3", "values": [{"measurement": "binding result", "setting": "cryo-EM structure [3]", "value": "binds"}, {"measurement": "binding result", "setting": "[4]", "value": "binds"}]}
